# In publication PMC12737151, “Systematic Development and Characterization of Enzyme-Free, Borax-Crosslinked Microneedles for Glucose-Responsive Insulin Delivery and In Vivo Glycemic Mitigation” (Pharmaceutics, 2025):
# Legend:
# STZ-diabetic mice [1] = assay: Baseline efficacy 0–12 h: plasma glucose and plasma insulin; format: in vivo, C57BL/6J mice; conditions: basal monitoring, mean ± SD, n = 8
# Experimental: (§1) Male C57BL/6J mice, 56–70 days old (8–10 weeks) and weighing 23–28 g at allocation, were housed under standard conditions with ad libitum access to food and water. Type 1 diabetes was induced by intraperitoneal streptozotocin (55 mg kg^−1 daily for 5 days). Mice with fasting plasma glucose (FPG) > 300 mg·dL^−1 were considered diabetic and enrolled. […] Animals were randomized to groups with allocation concealment; outcome assessors were blinded to treatment. […] Animals were housed at 22 ± 2 °C, 45–65% RH under a 12 h light/12 h dark cycle with environmental enrichment (nesting material), standard chow and water ad libitum. For blood sampling and patch application, brief isoflurane anesthesia was used (Materials). Humane endpoints: >20% body-weight loss from baseline, persistent FPG > 600 mg·dL^−1 despite treatment, or any severe distress prompted euthanasia per IACUC policy.
# Treatments and Dosing. […] The nominal dose was calculated based on this area ratio:[Nominal IU per mini-patch] = (Mean IU per full patch) × (mini-patch area/full patch active area).
# Baseline Efficacy (0–12/24 h). Plasma glucose levels (PGLs) were monitored for 12–24 h using a glucometer. Plasma insulin was quantified by ELISA at selected timepoints. The area under the curve (AUC0–12/24) was calculated to assess overall glycemic control.
# [2] = mouse, in vivo; SD
# Experimental: Terminal blood (or blood under anesthesia where permitted) was collected into
# serum tubes, allowed to clot for 20–30 min at room temperature, and
# centrifuged at 2,000 g for 10 min. Serum was analyzed the same day on an
# automated clinical chemistry analyzer available in our facility (reagent kits
# from Thermo Fisher Scientific, Waltham, MA, USA, or Roche Diagnostics,
# Indianapolis, IN, USA, as applicable), or stored at 4 °C for <6 h before testing.
# Laboratory reference intervals for C57BL/6J were considered during
# interpretation: AST 35–80 U·L⁻¹, ALT 25–60 U·L⁻¹, urea 5–9 mmol·L⁻¹, and
# creatinine 25–60 µmol·L⁻¹ (ranges may vary by laboratory). Hemolyzed
# samples were excluded per pre-specified criteria. Statistical analyses followed
# the main text (normality by Shapiro–Wilk, variance homogeneity by Levene,
# one-way ANOVA with Tukey post hoc; α = 0.05).
# STZ-diabetic mice [3] = assay: Intraperitoneal glucose-tolerance test (IPGTT); format: in vivo, C57BL/6J mice; conditions: 30 min after 1.5 g·kg^−1 glucose i.p., 4 h post-treatment, mean ± SD, n = 8
# Experimental: Male C57BL/6J mice, 56–70 days old (8–10 weeks) and weighing 23–28 g at allocation, were housed under standard conditions with ad libitum access to food and water. Type 1 diabetes was induced by intraperitoneal streptozotocin (55 mg kg^−1 daily for 5 days). Mice with fasting plasma glucose (FPG) > 300 mg·dL^−1 were considered diabetic and enrolled. […] Animals were randomized to groups with allocation concealment; outcome assessors were blinded to treatment. […] For blood sampling and patch application, brief isoflurane anesthesia was used (Materials).
# Patches were applied to a shaved dorsal skin site and secured with a semi-occlusive film. The nominal dose for mouse studies (0.05–0.20 IU) was delivered using “mini-patches” (Ø 3–5 mm) punched from larger, fully characterized patches (Ø 15 mm). The nominal dose was calculated based on this area ratio:[Nominal IU per mini-patch] = (Mean IU per full patch) × (mini-patch area/full patch active area).
# IPGTT. An intraperitoneal glucose-tolerance test (IPGTT) was performed 4 h post-application by administering an IP bolus of glucose (1.5 g·kg^−1). PGL and plasma insulin were monitored for 0–120 min, and the AUC0–120 was calculated.
# STZ-diabetic mice [4] = test system: STZ-diabetic mice; parameters: species or system C57BL/6J mice; conditions: mouse, in vivo; SD
# Experimental: as §1
# Patches were applied to a shaved dorsal skin site and secured with a semi-occlusive film. […] The nominal dose was calculated based on this area ratio:[Nominal IU per mini-patch] = (Mean IU per full patch) × (mini-patch area/full patch active area).
# An intravenous glucose-tolerance test (IVGTT) was performed 2–4 h post-application by administering an IV bolus of dextrose (0.7 g·kg^−1). PGL and plasma insulin were monitored for 0–60 min post-bolus.
# [5] = parameters: species or system C57BL/6J mice; conditions: mouse, in vivo; SD
# Experimental: Pharmacokinetics. Serial blood samples were collected following sI-MN application or SC insulin dosing. Plasma insulin concentrations were quantified by ELISA (4-PL; appropriate plasma dilution; internal QCs and spike-recovery within 80–120%). Noncompartmental analysis (NCA) yielded Cmax, tmax, and AUC over the reported interval, and terminal half-life (t1/2). […] AUCs were calculated by the linear-up/linear-down trapezoidal rule.
# patches (related to Section 2.2.3).
# Mechanical Robustness — Single-Needle Fracture
# compression at constant speed. Fracture point was identified from force–
# displacement traces. Per-array mean ± SD and overall CV were computed.
# ICC(1,1) (related to Section 2.2.4).
# ELISA Validation — Patch Extract Matrices
# ELISA sample diluent to fall within the validated range. For in-vitro release,
# corner wells avoided to minimize edge effects. Carryover was checked by
# placing an LLOQ well immediately after the ULOQ well. Matrix effect and
# 120% recovery and CV ≤15% (≤20% at LLOQ). Content (IU per patch) was
# human insulin (≈28.8 IU·mg⁻¹). All ELISA-derived masses were converted
# accordingly before IU normalizatio. Uniformity was summarized as mean ±
# ELISA Validation — Mouse Plasma (PK)
# inverted, and kept on wet ice.
# specified visual criterion) were excluded. Samples were diluted 1:5–1:20 in kit
# Selectivity against endogenous
# mouse insulin was ensured per manufacturer documentation (cross-reactivity
# <0.1%) and confirmed by blank plasma < LLOQ. Stability was verified for
# 14 days (≥90%). PK outputs per animal included observed Cmax, Tmax, AUC₀–
# regression), and t½ = ln2/λz.
# ICP–MS Validation — Boron Leaching
# Ventures (Christiansburg, VA, USA). External calibration used 0–100 µg·L⁻¹
# standards (matrix-matched), with R² ≥ 0.99 required. A rinse of 2% HNO₃ for
# daily for five consecutive days.
# dose and prior to glycemic assessments as applicable. Fasting plasma glucose
# were excluded per pre-specified rules. All animal procedures complied with
# and conformed to ARRIVE guidelines.
substance,measurement,setting,value
recombinant human insulin [SC insulin],Plasma glucose (PGL),"STZ-diabetic mice [1]; 0 h, dose-matched SC vs patch (nominal 0.05–0.20 IU)",344 ± 16 mg/dL
same,Plasma glucose (PGL),"STZ-diabetic mice [1]; 12 h, dose-matched",220 ± 30 mg/dL
same,AST,[2],48.2 ± 6.7 U·L⁻¹
same,Creatinine,[2],39.4 ± 2.5 µmol/L
same,IPGTT peak glycemia (maximal group mean at 30 min),STZ-diabetic mice [3],272 ± 17 mg/dL
same,IVGTT plasma insulin,STZ-diabetic mice [4],5.4 ± 0.4 ng/mL
same,AUC0–12h,[5],192 ± 11 ng·h/mL
same,Tmax,[5],1.0 ± 0.1 h
same,t½ (terminal half-life),[5],2.64 ± 0.12 h
